What was measured:
[1] = target: PduA* (Citrobacter freundii PduA with a C-terminal 23 residue extension) (C. freundii); test: native gel or EMSA; PduA and variants alone on native PAGE run at pH 8.5, 4 °C; low mobility = tessellated, high mobility = not tessellated; step: hexamer with hexamer (tessellation)
PduA* A63R (C. freundii) = test: native gel or EMSA; PduA, A63R and A^GGSST alone on native gel run at pH 9.5; mobility tells tessellated from not tessellated; step: hexamer with hexamer (tessellation)
[2] = target: PduA* (Citrobacter freundii PduA with a C-terminal 23 residue extension) (C. freundii); test: native gel or EMSA; titration of PduL into PduA trimer of hexamers on a native gradient gel (higher resolution)
[3] = target: PduA* (Citrobacter freundii PduA with a C-terminal 23 residue extension) (C. freundii); test: native gel or EMSA; titration of tagless PduL into His-tagged PduA on a 6% acrylamide native gel, with anti-His Western blot to locate PduA

## PduA* (Citrobacter freundii PduA with a C-terminal 23 residue extension) (natural protein)
[1]
  stoichiometry N: 3 hexamers

## PduA* A63R (natural protein)
PduA* A63R (C. freundii)
  stoichiometry N: 3 hexamers

B1: PduL (Citrobacter freundii), His-tag cleaved (enzyme)
chain: MDKQQLETTVTKVLDEMRERPIPLGISNRHIHLCAEDYDRLFPNHPISEKKELLQPGQYAADQTVTLVGPKGQLKNVRLLGPLRSTSQVEISRTDARTLGIAAPLRMSGSIEGTPGVRLISPFAELDLASGVIVAQRHIHMSPLDALILRVSHGDKVSVAINGDERRLIFDNVAVRVSPDMRLEMHIDTDEANAAGADNPQAFATLVSPR
[2]
  stoichiometry N (PduL dimers per PduA trimer of hexamers): 3
[3]
  stoichiometry N (PduL dimer per PduA hexamer): 1
